Experiments:
[1] = target: PSI core complex (Chlamydomonas reinhardtii) (UniProt P12154); assay: co-purification by sucrose density gradient ultracentrifugation with immunoblotting; PSI-LHCI complex from the ΔLHCA5 mutant (no LHCA5); thylakoids solubilised with 1% beta-DDM; SW41Ti, 288,000g, 4°C, 16 h; immunoblots normalised to PSAD
[2] = target: PSI core complex (Chlamydomonas reinhardtii) (UniProt P12154); assay: co-purification by sucrose density gradient ultracentrifugation with 14C autoradiography; PSI-LHCI supercomplex from uniformly 14C-labelled wild-type cells; NaBr-washed thylakoids solubilised with 0.8% beta-DDM; TLS-55 rotor, 259,000g, 2.5 h; polypeptides separated by three SDS-PAGE systems; signal divided by carbon number and normalised to PSAF
[3] = target: PSAF (Chlamydomonas reinhardtii); assay: as above

Chain of UniProt P12154 (P12154 whole entry, looked up, one chain of several): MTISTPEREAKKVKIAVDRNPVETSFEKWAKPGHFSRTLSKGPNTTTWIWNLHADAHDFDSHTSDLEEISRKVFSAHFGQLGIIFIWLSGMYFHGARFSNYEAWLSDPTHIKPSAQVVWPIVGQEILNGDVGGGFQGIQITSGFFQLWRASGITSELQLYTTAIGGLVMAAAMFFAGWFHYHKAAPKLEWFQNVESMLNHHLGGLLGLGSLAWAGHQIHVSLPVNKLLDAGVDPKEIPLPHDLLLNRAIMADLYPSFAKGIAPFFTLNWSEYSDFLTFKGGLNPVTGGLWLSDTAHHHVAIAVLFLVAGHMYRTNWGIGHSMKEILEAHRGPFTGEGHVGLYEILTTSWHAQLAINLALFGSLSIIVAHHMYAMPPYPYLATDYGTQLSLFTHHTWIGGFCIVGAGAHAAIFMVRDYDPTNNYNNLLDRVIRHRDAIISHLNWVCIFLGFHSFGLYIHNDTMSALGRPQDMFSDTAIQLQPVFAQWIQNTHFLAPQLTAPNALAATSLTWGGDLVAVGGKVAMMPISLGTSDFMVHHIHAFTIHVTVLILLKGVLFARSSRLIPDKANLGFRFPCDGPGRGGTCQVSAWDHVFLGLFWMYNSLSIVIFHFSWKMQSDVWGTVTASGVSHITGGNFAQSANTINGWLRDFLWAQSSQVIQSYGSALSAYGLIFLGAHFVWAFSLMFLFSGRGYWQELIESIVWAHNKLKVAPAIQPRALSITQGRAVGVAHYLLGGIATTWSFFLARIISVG

stoichiometry N (copy, on a PSAF basis) [2]	Substance	further results
1	LHCA7 (natural protein)	
1	LHCA8 (natural protein)	

The remaining lines, values behind:

Substance	stoichiometry N (copy, on a PSAF basis) [2]	further results
LHCA1 (natural protein)		amount in the PSI-LHCI supercomplex from the ΔLHCA5 mutant, percent of the control level [1]: 50%; stoichiometry N (copies, on a PSAF basis) [2]: 1.81
LHCA2 (natural protein)	1	
LHCA3 (natural protein)	1	
LHCA5 (natural protein)	1	
LHCA9 (natural protein)	1	
PSAD (natural protein)		stoichiometry N (relative abundance, on a PSAF basis) [3]: 1.17

Reference: publication PMC6181050
